Laboratory results reported in patent US20020164791A1.

Target: endogenous BMP released from the ES cells (BMP4) (mouse) (UniProt P21275)
Test: cell-based or functional assay

UniProt P21275, sequence (P21275 293-408 limits assumed): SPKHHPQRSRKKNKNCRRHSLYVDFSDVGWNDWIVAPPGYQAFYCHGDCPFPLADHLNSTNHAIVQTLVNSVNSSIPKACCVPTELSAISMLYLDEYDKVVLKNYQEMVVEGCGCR

mouse Cerberus-like (mCer-1) protein (from UniProt O55233 18-272) (ligand)
numbers of primary neural stem cell colonies generated (ES cells in LIF, 20% v/v mCer-1 supernatant): 50 % increase
